4 variants from FireProtDB (doi:10.1021/bi0525223) can be followed below.

What is called Tm is the temperature at the midpoint of the melting transition.

The chains are these.
B1: Protein P-30, P22069 (parent)
chain: QDWLTFQKKHITNTRDVDCDNIMSTNLFHCKDKNTFIYSRPEPVKAICKGIIASKNVLTTSEFYLSDCNVTSRPCKYKLKKSTNKFCVTCENQAPVHFVGVGSC

In the series the parent is B1. The settings on record: Lithobates pipiens, pH 5.5, sodium acetate 100 mM, reversible: Yes, structure 1ONC, whole UniProt chain shown; for ddG of mutation (higher = less stable) / denaturant midpoint (higher = more stable): 20 °C, GdnHCl, Fluorescence; for Tm / change of melting temperature, mutant - wild type (higher = more stable): Thermal, DSC.

For QDWLTFQKKHITNTRDVDCDNIMSTNLFHCKDKNTFIYSRPEPVKAICKGIIASKNVLTTSEFYLSDCNVTSRPCKYKLKKSTNKFAVTCENQAPVHFVGVGSA [C87A C104A], the “ddG of mutation (higher = less stable)” value turned out to be 32 kJ/mol; the “denaturant midpoint (higher = more stable)” value (“denaturant midpoint” for short) came to 2.1 M; the Tm stood at 69.4 °C; the “change of melting temperature, mutant - wild type (higher = more stable)” value (from here on “change of melting temperature, mutant”) is -19.1 °C.

For QDWLTFQKKHITNTRDVDCDNIMSTNLAHCKDKNTFIYSRPEPVKAICKGIIASKNVLTTSEFYLSDCNVTSRPCKYKLKKSTNKFCVTCENQAPVHFVGVGSC [F28A], the “ddG of mutation (higher = less stable)” value was 20.9 kJ/mol; the “denaturant midpoint” value stood at 2.9 M; the Tm stood at 78.1 °C; the “change of melting temperature, mutant” value is -10.4 °C.

Turning to QDWLTFQKKHITNTRDVDCDNIMSTNLTHCKDKNTFIYSRPEPVKAICKGIIASKNVLTTSEFYLSDCNVTSRPCKYKLKKSTNKFCVTCENQAPVHFVGVGSC [F28T], the “ddG of mutation (higher = less stable)” value was determined as 22.2 kJ/mol; the “denaturant midpoint” value amounted to 2.8 M; the Tm was found to be 77.4 °C; the “change of melting temperature, mutant” value was -11.1 °C.

For the variant QDWLTFQKKHITNTRDVDCDNIMSTNLFHCKDKNTYIYSRPEPVKAICKGIIASKNVLTTSEFYLSDCNVTSRPCKYKLKKSTNKFCVTCENQAPVHFVGVGSC [F36Y], the “ddG of mutation (higher = less stable)” value is 19.5 kJ/mol; the “denaturant midpoint” value came to 3 M; the Tm was found to be 79.2 °C; the “change of melting temperature, mutant” value is -9.3 °C.
